Results from patent US20230322924A1 (Janssen / Centocor, published 2023).
Residue numbers refer to the chain shown, from its start.

B1: BLW-3B4 (antibody, V domains shown)
VH: QVQLQQSGPGLVKPSQTLSLTCAISGDSVFNNNAAWSWIRQSPSRGLEWLGRTYYRSKWLYDYAVSVKSRITVNPDTSRNQFTLQLNSVTPEDTALYYCVRGYSSSFDYWGQGTLVTVSS
VL: QSALTQPASVSGSPGQSITISCTGTSRDIGTYKFVSWYQQHPDKAPKVLLYEVSKRPSGVSSRFSGSKSGNTASLTISGLQAEDQADYHCCSYAGSGTLLFGGGTKLTVL
notes: OmniRat hybridoma supernatant: human V regions on rat constant regions; also called V regions cloned as CD3B313 (CD3H218/CD3L125)
B2: BLX-3F4 (antibody, V domains shown)
VH: B1 VH with Q3R, S66T, N87T, V100A
VL: B1 VL with R27S, D28N
notes: OmniRat hybridoma supernatant: human V regions on rat constant regions; also called V regions cloned as CD3B316 (CD3H222/CD3L124)
B3: BLX-1F8 (antibody, V domains shown)
VH: B1 VH with N87K, V100S
VL: B1 VL with R27S, G70D
notes: OmniRat hybridoma supernatant: human V regions on rat constant regions; also called V regions cloned as CD3B314 (CD3H220/CD3L126)
B4: BLW-2B4 (antibody, V domains shown)
VH: B1 VH
VL: B1 VL with S54N
notes: OmniRat hybridoma supernatant: human V regions on rat constant regions; also called V regions cloned as CD3B311 (CD3H218/CD3L123)
B5: BLX-2E9 (antibody, V domains shown)
VH: B1 VH with A34G, V100A
VL: B1 VL with R27S, D28N
notes: OmniRat hybridoma supernatant: human V regions on rat constant regions; also called V regions cloned as CD3B315 (CD3H221/CD3L124)
B6: BLX-3G8 (antibody, V domains shown)
VH: B1 VH with S37T, N87K, V100S
VL: B1 VL with R27S, D28N
notes: OmniRat hybridoma supernatant: human V regions on rat constant regions; also called V regions cloned as CD3B317 (CD3H223/CD3L124)
B7: BLW-2E6 (antibody, V domains shown)
VH: B1 VH with G10R, K13R, V100A
VL: B1 VL with R27S, D28N
notes: OmniRat hybridoma supernatant: human V regions on rat constant regions; also called V regions cloned as CD3B312 (CD3H219/CD3L124)
B8: C33B916 (antibody, V domains shown)
VH: QVQLVESGGGVVQPGRSLRLSCATSGFTFSNYGMHWVRQAPGKGLEWVAVIWYVGSHKYYADSVKGRFTISRDNSKNTLYLQMNSLRAEDTAVYYCARDGSLCFDYWGQGTLVTVSS
VL: SYELTQPPSVSVSPGQTANISCSGVTLGYNYAYWYQQKPGQSPILVISQDTQRPSGIPERFSGSNSGNTATLTISGTQAMDEAAYYCQAWDITTVLFGGGTKLTVL
notes: OMNIMouse-derived anti-CD33 mAb; same V regions as C33B908; also called C33H256/C33L122; C33F554
B9: PS3B84 (bispecific antibody, human IgG4 S228P, kappa, lambda, F234A L235A)
heavy 1: not shown
light 1: not shown
heavy 2: QVQLQQSGPRLVRPSQTLSLTCAISGDSVFNNNAAWSWIRQSPSRGLEWLGRTYYRSKWLYDYAVSVKSRITVNPDTSRNQFTLQLNSVTPEDTALYYCARGYSSSFDYWGQGTLVTVSSASTKGPSVFPLAPCSRSTSESTAALGCLVKDYFPEPVTVSWNSGALTSGVHTFPAVLQSSGLYSLSSVVTVPSSSLGTKTYTCNVDHKPSNTKVDKRVESKYGPPCPPCPAPEAAGGPSVFLFPPKPKDTLMISRTPEVTCVVVDVSQEDPEVQFNWYVDGVEVHNAKTKPREEQFNSTYRVVSVLTVLHQDWLNGKEYKCKVSNKGLPSSIEKTISKAKGQPREPQVYTLPPSQEEMTKNQVSLTCLVKGFYPSDIAVEWESNGQPENNYKTTPPVLDSDGSFLLYSKLTVDKSRWQEGNVFSCSVMHEALHNHYTQKSLSLSLGK
light 2: QSALTQPASVSGSPGQSITISCTGTSSNIGTYKFVSWYQQHPDKAPKVLLYEVSKRPSGVSSRFSGSKSGNTASLTISGLQAEDQADYHCVSYAGSGTLLFGGGTKLTVLGQPKAAPSVTLFPPSSEELQANKATLVCLISDFYPGAVTVAWKADSSPVKAGVETTTPSKQSNNKYAASSYLSLTPEQWKSHRSYSCQVTHEGSTVEKTVAPTECS
notes: IgG4 PAA; also called PSMB344 x CD3B376
B10: PS3B80 (bispecific antibody, human IgG4 S228P, kappa, lambda, F234A L235A)
heavy 1: not shown
light 1: not shown
heavy 2: B9 heavy 2
light 2: B9 light 2
notes: IgG4 PAA; also called PSMB347 x CD3B376
B11: PS3B82 (bispecific antibody, human IgG4 S228P, kappa, lambda, F234A L235A)
heavy 1: not shown
light 1: not shown
heavy 2: B9 heavy 2
light 2: B9 light 2
notes: IgG4 PAA; also called PSMB362 x CD3B376
B12: PS3B77 (bispecific antibody, human IgG4 S228P, kappa, lambda, F234A L235A)
heavy 1: not shown
light 1: not shown
heavy 2: B9 heavy 2
light 2: B9 light 2
notes: IgG4 PAA; also called PSMB349 x CD3B376
B13: PS3B76 (bispecific antibody, human IgG4 S228P, kappa, lambda, F234A L235A)
heavy 1: not shown
light 1: not shown
heavy 2: B9 heavy 2
light 2: B9 light 2
notes: IgG4 PAA; also called PSMB358 x CD3B376
B14: PS3B78 (bispecific antibody, human IgG4 S228P, kappa, lambda, F234A L235A)
heavy 1: not shown
light 1: not shown
heavy 2: B9 heavy 2
light 2: B9 light 2
notes: IgG4 PAA; also called PSMB359 x CD3B376
B15: PS3B79 (bispecific antibody, human IgG4 S228P, kappa, lambda, F234A L235A)
heavy 1: not shown
light 1: not shown
heavy 2: B9 heavy 2
light 2: B9 light 2
notes: IgG4 PAA; also called PSMB360 x CD3B376
B16: PS3B81 (bispecific antibody, human IgG4 S228P, kappa, lambda, F234A L235A)
heavy 1: not shown
light 1: not shown
heavy 2: B9 heavy 2
light 2: B9 light 2
notes: IgG4 PAA; also called PSMB361 x CD3B376

Each binder was assayed against T1, human CD3e/d complex on cells transiently transfected with pOPT-CD3e/d-hum-mix (human, UniProt P07766 23-126; P04234 22-171) (assay: CELISA, hybridoma supernatant).
T1 construct: Tagged screening constructs
T1 sequence (P07766 23-126 limits assumed, chain 1 of 2): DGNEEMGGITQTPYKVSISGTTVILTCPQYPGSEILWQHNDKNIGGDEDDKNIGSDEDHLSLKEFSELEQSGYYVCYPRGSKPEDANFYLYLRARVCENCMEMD
T1 sequence (P04234 22-171 limits assumed, chain 2 of 2): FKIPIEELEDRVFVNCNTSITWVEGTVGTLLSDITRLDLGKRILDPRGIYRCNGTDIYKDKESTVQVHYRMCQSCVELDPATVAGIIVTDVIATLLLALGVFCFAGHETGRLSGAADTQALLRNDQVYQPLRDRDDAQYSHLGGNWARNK
Experimental: (§1) Hybridoma supernatants from fusions BLW (with magnetic bead depletion of lymphocytes) and BLX (without magnetic bead depletion of lymphocytes) were analyzed a) by a cell-based ELISA (CELISA) on cells transiently transfected with human and cynomolgus cDNA cloned into screening vectors: pOPT-CD3e-hum-epsilon-TCE.OMT+pOPT-CD3d-hum-delta.OMT, 1:1 (pOPT-CD3e/d-hum-mix) and pcDNA3.1-CD3e-cyn-[…]+pcDNA3.1-CD3d-cyn-delta, 1:1 (pcDNA3.1-CD3e/d-cyn-mix). For CELISA negative control, non-transfected mammalian cells were incubated with hybridoma supernatants and detected with the secondary Bethyl antibody. For a CELISA transfection control, mammalian cells, transfected with the constructs described above, were detected with anti-tag antibody.

| Binder | % positive | Rfu |
| --- | --- | --- |
| B1 | 127% | 867 rfu |
| B2 | 131% | 896 rfu |
| B3 | 101% | 689 rfu |
| B4 | 101% | 689 rfu |
| B5 | 127% | 867 rfu |
| B6 | 111% | 759 rfu |
| B7 | 34% | 231 rfu |

What follows are binders tested against T2, cynomolgus CD3e/d complex on cells transiently transfected with pcDNA3.1-CD3e/d-cyn-mix (cynomolgus, UniProt Q95LI5 22-198; Q95LI8 22-171) (assay: CELISA, hybridoma supernatant).
T2 construct: Tagged screening constructs
T2 sequence (Q95LI5 22-198 limits assumed, chain 1 of 2): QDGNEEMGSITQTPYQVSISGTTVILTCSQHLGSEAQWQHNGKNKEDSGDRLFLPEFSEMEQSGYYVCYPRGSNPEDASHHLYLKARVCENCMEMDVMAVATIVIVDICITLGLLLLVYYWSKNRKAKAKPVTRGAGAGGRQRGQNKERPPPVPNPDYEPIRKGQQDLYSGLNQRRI
T2 sequence (Q95LI8 22-171 limits assumed, chain 2 of 2): as the sequence (P04234 22-171 limits assumed, chain 2 of 2) above, with I5V, N15K, I20V, S32T, D33N, I34N, T64A, S74N, V83L, H141R counted along it
Experimental: as §1

| Binder | % positive | Rfu |
| --- | --- | --- |
| B1 | 66% | 320 rfu |
| B2 | 76% | 371 rfu |
| B3 | 47% | 230 rfu |
| B4 | 47% | 230 rfu |
| B5 | 66% | 320 rfu |
| B6 | 70% | 340 rfu |
| B7 | 25% | 121 rfu |

What follows are binders tested against T3, Cyno CD33 full length (cynomolgus monkey) (assay: flow cytometry on HEK293F cells expressing cyno CD33).
T3 construct: also called cyCD33
Experimental: (§2) The purified antibodies were assessed for binding to stably transfected HEK293F cells expressing human CD33 or cyno CD33 (generation described above) along with the parental HEK293F as negative control. Cells were harvested from tissue culture flasks using non-enzymatic dissociation buffer (Thermo Scientific). The flasks were rinsed twice with PBS and dissociation buffer was added to the flask, and the flask was incubated for 10 minutes at 37° C. until the cells became non-adherent. The cells were centrifuged at 300 g for 5 minutes and resuspended at 1.0×10⁶ cells/ml in staining buffer (Becton Dickinson; Franklin Lakes, NJ). 50,000 cells/well of each cell type was plated in 50 μl of staining buffer in round bottom plates (Becton Dickinson). […] 100 μl staining buffer was added to all wells of each plate, the plates were spun at 300 g for 5 min, the buffer was removed, 200 μl staining buffer was added to all wells of each plate, the plates were spun at 300 g for 5 min, and the buffer was removed. 50 μl of 2 μg/ml of Goat-anti-human Fc AF647 secondary antibody (Jackson Immunoresearch; West Grove, PA) was added to all wells of the plates, and the plates were incubated for 30 min at 4° C. 100 μl staining buffer was added to all wells of the plates, the plates were spun at 300 g for 5 min, and the buffer was removed. 200 μl running buffer (running buffer is Staining buffer, 1 mM EDTA, 0.1% Pluronic Acid) was added to all wells of the plates, the plates were spun at 300 g for 5 min, and the buffer was removed. 30 μl running buffer containing Sytox Green live/dead dye (ThermoFisher) was added to all wells with cells and the plates were read on an iQue IntelliCyt flow cytometer. Cells were gated on forward vs. side scatter to eliminate debris, then on singlets and then on live cells which excluded the Sytox stain. Antibody binding was assessed by the mean fluorescence intensity in the AF647 channel.
(§3) The OmniMouse panel (8 mAbs total) was generated separately and characterized further for binding to cells.

| Binder | MFI at 0 nM (background) | MFI at 0.6 nM | MFI at 6 nM | MFI at 60 nM |
| --- | --- | --- | --- | --- |
| B8 | 104 MFI | 22800 MFI | 33300 MFI | 41000 MFI |

Each binder was assayed against T4, Human CD33 full length (human, UniProt P20138 18-364) (assay: flow cytometry on HEK293F cells expressing human CD33).
T4 construct: also called huCD33
T4 sequence (P20138 18-364 limits assumed): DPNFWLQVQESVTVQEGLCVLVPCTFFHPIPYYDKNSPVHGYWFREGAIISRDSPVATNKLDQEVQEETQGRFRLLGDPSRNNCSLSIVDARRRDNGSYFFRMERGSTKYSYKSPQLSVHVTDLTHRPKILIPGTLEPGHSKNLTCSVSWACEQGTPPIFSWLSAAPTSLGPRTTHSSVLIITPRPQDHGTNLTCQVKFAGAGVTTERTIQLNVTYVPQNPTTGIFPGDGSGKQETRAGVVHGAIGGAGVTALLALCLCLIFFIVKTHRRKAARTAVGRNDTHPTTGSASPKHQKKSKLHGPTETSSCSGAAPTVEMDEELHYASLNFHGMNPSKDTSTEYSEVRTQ
Experimental: as §2, §3

| Binder | MFI at 0 nM (background) | MFI at 0.6 nM | MFI at 6 nM | MFI at 60 nM |
| --- | --- | --- | --- | --- |
| B8 | 167 MFI | 193000 MFI | 404000 MFI | 448000 MFI |

The binders below were run against T5, human PSMA on cells (LNCaP) (human, UniProt Q04609 1-750) (assay: flow cytometry cell binding assay on LNCaP cells).
T5 construct: whole, on cells; also called LNCaP cells
T5 sequence (Q04609 whole entry): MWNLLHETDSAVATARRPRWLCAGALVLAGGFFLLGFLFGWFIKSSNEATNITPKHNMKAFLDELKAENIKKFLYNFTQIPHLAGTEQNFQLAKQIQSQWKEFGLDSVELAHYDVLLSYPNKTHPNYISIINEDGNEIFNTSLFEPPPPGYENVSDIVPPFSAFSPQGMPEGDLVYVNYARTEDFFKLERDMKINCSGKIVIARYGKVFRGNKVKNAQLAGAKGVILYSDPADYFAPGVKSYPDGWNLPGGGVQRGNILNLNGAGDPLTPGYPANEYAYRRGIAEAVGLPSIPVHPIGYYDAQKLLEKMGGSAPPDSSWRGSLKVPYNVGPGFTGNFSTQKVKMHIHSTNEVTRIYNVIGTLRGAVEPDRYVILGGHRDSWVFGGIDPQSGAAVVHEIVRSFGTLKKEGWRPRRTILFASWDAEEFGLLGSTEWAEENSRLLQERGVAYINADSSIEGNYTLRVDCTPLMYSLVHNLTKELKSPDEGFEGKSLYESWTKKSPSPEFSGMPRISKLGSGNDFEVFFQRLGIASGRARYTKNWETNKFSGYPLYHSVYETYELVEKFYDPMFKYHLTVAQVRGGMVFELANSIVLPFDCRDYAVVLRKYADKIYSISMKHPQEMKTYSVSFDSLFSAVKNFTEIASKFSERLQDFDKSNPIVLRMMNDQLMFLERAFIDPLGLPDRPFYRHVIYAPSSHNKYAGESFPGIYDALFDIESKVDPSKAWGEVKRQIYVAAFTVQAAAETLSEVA
Experimental: PSMA×CD3 bispecific antibodies were tested for binding to PSMA positive cell line, LNCAP, to PSMA negative cell line, PC3. To assess the binding capabilities of the PSMA bispecific antibodies, the cell-binding assay was utilized (described previously). Bispecific antibodies were normalized for protein concentration and then incubated with the same number of cells expressing either human or cyno PSMA. The MFI at each concentration was collected by flow cytometry and plotted as a function of concentration. Data was transformed via log 10 and then plotted. Nonlinear regression of binding curves was done to determine EC50s.

| Binder | binding result |
| --- | --- |
| B9 | binds |
| B10 | binds |
| B11 | binds |
| B12 | binds |
| B13 | binds |
| B14 | binds |
| B15 | binds |
| B16 | binds |

These binders were tested against T6, Cyno CD33 ECD-HSA (cynomolgus monkey) (assay: ProteOn SPR, mAb captured on anti-human Fc, antigen as analyte).
T6 construct: Cyno CD33 ECD fused to HSA and a six-histidine tag; also called C33W1
Experimental: (§4) The panel of mAbs was then further characterized for full affinity analysis as well as epitope binning. The binding of anti-CD33 mAbs to recombinant human CD33 ECD-HSA (C33W2) and cyno CD33 ECD-HSA (C33W1) was measured by ProteOn SPR (Bio-Rad). […] Different mAbs were captured on the anti-human Fc IgG surface at 0.25 or 0.5 μg/ml (160-300 RU) in vertical ligand orientation, with the 6th ligand channel as no ligand surface control. Human and cyno CD33-HSA proteins at 0.3 μM concentration in 3-fold dilution series of 5 concentrations flew in as analyte to bind to captured mAbs in the horizontal orientation. A buffer sample was also injected in the 6th channel to monitor the dissociation of captured mAb and baseline stability. […] The raw biding data were processed by double referencing after subtracting the response data from: 1) the inter-spot to correct for the non-specific interactions between the Ag and the empty chip surface; 2) the buffer channel to correct for baseline drifting due to the dissociation of captured mAb surface over time. The processed data at all antigen concentrations for each mAb were globally fit to a 1:1 simple Langmuir binding model to extract estimates of the kinetic (kₒₙ, koff) and affinity (Kd) constants.

| Binder | Kd | koff | kon |
| --- | --- | --- | --- |
| B8 | 0.852 nM | 0.000403 s⁻¹ | 473000 M⁻¹ s⁻¹ |

What follows are binders tested against T7, Human CD33 ECD-HSA (human) in the same assay as above.
T7 construct: CD33 ECD fused at the C-terminus to monomeric HSA (C58S) and a six-histidine tag; also called C33W2; huCD33 ECD-HSA
Experimental: as §4

| Binder | Kd | koff | kon |
| --- | --- | --- | --- |
| B8 | 0.655 nM | 0.000411 s⁻¹ | 627000 M⁻¹ s⁻¹ |

The binders below were run against T8, human CD3 on human T cells (human, UniProt P07766 23-207) (assay: flow cytometry, Jurkat CD3+ (E6-1)).
T8 construct: Native TCR-CD3 complex on cells; also called primary human T cells; human pan T cells
T8 sequence (P07766 23-207 limits assumed): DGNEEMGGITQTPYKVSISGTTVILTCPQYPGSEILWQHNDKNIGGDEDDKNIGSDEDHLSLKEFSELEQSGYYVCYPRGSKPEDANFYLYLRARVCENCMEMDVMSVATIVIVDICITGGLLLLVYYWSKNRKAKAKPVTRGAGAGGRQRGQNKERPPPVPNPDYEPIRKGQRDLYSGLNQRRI

| Binder | % positive | geomean |
| --- | --- | --- |
| B1 | 72% | 199000 geometric mean fluorescence |
| B2 | 66% | 182000 geometric mean fluorescence |
| B3 | 53% | 148000 geometric mean fluorescence |
| B4 | 53% | 148000 geometric mean fluorescence |
| B5 | 72% | 199000 geometric mean fluorescence |
| B6 | 77% | 215000 geometric mean fluorescence |
| B7 | 3% | 7500 geometric mean fluorescence |
